Reference: patent US20250051443A1 (NATIONAL RESEARCH COUNCIL OF CANADA, published 2025)
Changes are numbered by the printed parent chain.

B1: F282-2D5 (antibody, V domains shown)
VH: QVQLQQPGTELVKPGASVKLSCKASGYTFTSYWMHWVKQRPGQGLEWIGNINPSNGGTNYNENFKTKATLTVDKSSSTAYMQLSSLTSEDSAVYYCARDRSGQYYFDYWGQGTTLTVSS
VL: DIVMSQSPSSLAVSAGEKVTMSCKSSQSLLNSRTRKNYLAWYQQKPGQSPKLLIYWASTRESGVPDRFTGSGSGTDFTLTISSVQAEDLAVYYCIQSYHLRTFGGGTILEIK
notes: also called F282-2D5-2
B2: F332-7C5 (antibody, mouse IgG2a, V domains shown)
VH: QVQLQQPGAELGKPGTSVKLSCKASGYTFTSYWMHWVKQRPGQGLEWIGNINPSSGITNYNERFKNKATLTVDKSSTTAYMQLSILTSEDSAVYYCSRDISGQYYFNFWGQGTTLTVSS
VL: B1 VL with S71T, I95K, H99N, I108K
notes: also called F332-7C5-2; F332-7C5 (5E12, 10A8)
B3: F332-6D7 (antibody, mouse IgG2a, V domains shown)
VH: QVQLQQPGAELGKPGTSVNLSCKASGYTFTSYWMHWVKQRPGQGLDWIGNINPNSGTTNYNEKFKSKATLTVDKSSSTAYMQLSTLTSEDSAVYYCTRDISGQYYFDYWGQGTSLTVSS
VL: B1 VL with I95K, H99S, T107S, I108K
notes: also called F332-6D7-2; F332-6D7 (7G4)
B4: F332-3E9 (antibody, mouse IgG2a, V domains shown)
VH: QVQLQQPGAELGKPGTSVKLSCKASGYTFTSYWIHWLKQRPGQGLEWIGNINPNGGSINCNEKFTTKATLTIDKSSSTAYMQLSTLTSEDFAVYYCTRDTSGQYYFDYWGQGTTLTVSS
VL: B1 VL with V3M, I95T, I108K
notes: also called F332-3E9-2; F332-3E9 (12G4)
B5: F332-5F2 (antibody, mouse IgG2b, V domains shown)
VH: B3 VH with N19K, D46E, S55G, T57D, T58S, Y108F, S118F
VL: B1 VL with V3L, K18Q, Y55F, E61K, D76Y, I95T, H99N, I108K
notes: also called F332-5F2-2; F332-5F2 (6G8, 13A3)
B6: F332-1C9 (antibody, mouse IgG2a, V domains shown)
VH: B3 VH
VL: B1 VL with T80I, I95K, H99S, I108K
notes: Sister clones 1A10, 5H8, 8B11 share the same entries; also called F332-1C9-2; F332-1C9 (1A10, 5H8, 8B11)
B7: F332-1E2 (antibody, mouse IgG2a, V domains shown)
VH: B4 VH with L37V, I48V, G55S, C60Y, T65K, T66N, I72V
VL: B1 VL with K18R, I108K
notes: Sister clone 8C5 shares the same entries; also called F332-1E2-2; F332-1E2 (8C5)
B8: F332-4D6 (antibody, mouse IgG2a, V domains shown)
VH: B4 VH with P7S, L37V, G55S, I58T, C60Y, T65K, T66R, I72A
VL: B1 VL with L52V, I95K, I108K
notes: also called F332-4D6-2; F322-4D6

What was measured:
human CD3 [1] = biological target: T1, human CD3 (human, UniProt P07766 23-207; P09693 23-182; P04234 22-171); assay: flow competition on Jurkat, 100 nM unlabeled mAb; competitor AF488-OKT-3 mIgG2b 1.5 nM
T1 construct: whole, on cells; also called CD3 on Jurkat T cells; CD3 on primary human T cells
Experimental: (§1) In order to evaluate whether anti-CD3 monoclonal antibodies bind to the same epitope region, flow cytometry competition experiments on Jurkat cells were performed.
(§2) To that effect, a fixed concentration of the indicated AF488-labeled mAb were incubated with 100 nM of unlabeled monoclonal antibodies to assess if their binding capacity was impaired in presence of unlabeled mAbs. […] The AF488-OKT3 mIgG2b was labeled in-house using AlexaFluor488 protein labelling kit (Invitrogen #A10235) following manufacturer's instruction. The free dye removal step was done using Zeba™ Spin Desalting Columns, 7K MWCO (Thermo Scientific #89890). The final product was analyzed by UPLC-SEC to ensure the integrity of the labeled mAb.

human CD3 [2] = biological target: T1, human CD3; assay: flow cytometry, hybridoma supernatant on CD3+ Jurkat cells
Experimental: Cells were stained with either negative control mouse IgG (Jackson Immunoresearch cat #115-000-003) or an anti-GFP 3E6 mAb supernatant or tested hybridoma supernatant. Specific binding was reflected by the increase in the mean fluorescent intensity of antibody binding to Jurkat T-cells (FIGS. 1A to 1F, grey histograms) compared to the Jurkat CD3 negative cell line J.RT3-T3.5 (FIGS. 1A to 1F, open histograms). AF488 labeled positive control mAb OKT3 was also analyzed.

human CD3 [3] = biological target: T1, human CD3; assay: flow competition on Jurkat, 100 nM unlabeled mAb; competitor AF488-UCHT1 5 nM
Experimental: as §1, §2

human CD3 [4] = biological target: T1, human CD3; assay: cell-based or functional assay
human CD3 [5] = biological target: T1, human CD3; assay: apparent KD (KDapp), flow cytometry titration on purified primary human T cells
Experimental: The binding characteristics of the purified anti-CD3 mAbs were assessed in titration studies on purified human primary T cells from different donor samples. Fresh ex vivo peripheral blood mononuclear cells (PBMCs) were obtained via density centrifugation over Ficoll-Paque using standard procedures and untouched T cell fractions obtained from PBMCs by negative pan-T cell selection and magnetic cell sorting. Starting from 300 nM concentrations of the anti-CD3 mAbs, eight point binding curves were generated from the resultant mean fluorescence intensity (MFI) values obtained through detection of labelled secondary antibody to bound CD3 in flow cytometry experiments (FIGS. 3A and 3B). Both commercial mouse anti-human CD3 mAb (OKT-3; Biolegend) and an in house generated IgG1 version of OKT-3 were employed as positive controls together with a non-specific mouse IgG serving as a negative binding control. Following curve fit analysis using one-site specific binding with Hill slope, the KDapp (concentration needed to achieve a half-maximum binding at equilibrium) for each mAb was calculated (Table 2).
Eight point binding titrations were performed with the anti-CD3 mAbs starting at either 300 or 100 nM on freshly purified human T cells obtained through negative selection from PBMC fractions. Briefly, 1×10⁵ human T cells (50 μL of staining buffer (SB; PBS/1% BSA/0.01% NaN3) were incubated with graded dilutions of the anti-CD3 mAbs in SB ([…]) for 2 hours at 4° C. in 96 w U-bottom plates, followed by plate washing with SB ([…]). Cell pellets were resuspended with 25 μL of a 0.25 mg/mL solution of the goat (Fab′)₂ anti-mouse IgG (H+L)− APC secondary antibody in SB, incubated at 4° C. (30 min.), washed 1× with SB, and resuspended for flow analysis. Recombinant anti-human OKT-3 IgG2b (in house produced) and non-specific mIgG were employed similarly as positive and negative controls respectively. 10K live events were acquired on a BD LSRFortessa flow analyzer and mean fluorescence intensities (MFI) calculated after subtraction of secondary antibody alone values. Using GraphPad Prism software, the data were analyzed using a one site specific binding with Hill slope non-linear regression model to calculate KDapp and BMax values (See Table 2).

human CD3 [6] = biological target: T1, human CD3; assay: flow competition on Jurkat, 100 nM unlabeled mAb; competitor AF488-SK7 1.5 nM
Experimental: as §1, §2

human CD3 [7] = biological target: T1, human CD3; assay: flow competition on Jurkat, 100 nM unlabeled mAb; competitor AF488-SP34.2 20 nM
Experimental: as §1, §2

human CD3 [8] = biological target: T1, human CD3; assay: cell-based or functional assay; remark: listed apart in the source
human CD3 [9] = biological target: T1, human CD3; assay: apparent KD (KDapp), flow cytometry titration on Jurkat cells
Experimental: Unless otherwise stated, all media are kept are 4° C. and all incubations are performed on wet ice. Exponentially growing Jurkat cells were centrifuged and resuspended in complete medium at a cell density of 2×10⁶ cells/mL. Fifty μL/well of cells were distributed in a polypropylene v-bottom 96 well plate and serial 1/3 dilutions of purified mAbs starting at 300 nM were added and incubated for 2 hours. Cells were washed twice by centrifugation and further incubated with a FITC labeled F(ab′)2 goat anti-mouse antibody (Fc specific, #115-096-071, Jackson Immunoresearch, Cedarlane, Burlington, ON) for an hour. Cells were washed and re-suspended in medium containing Propidium iodide to exclude dead cells from analysis. Samples were filtered through a 60 μm nylon mesh filter plate (Millipore, Ireland) to remove cell aggregates. Flow cytometry analyses were performed on 2,000 viable single-cells events gated on forward scattering, side scattering parameters and propidium iodide dye exclusion using a BD-LSRFortessa flow cytometer (Becton-Dickinson Biosciences, CA, USA) and a standard filter set using BD FACSDiva™ acquisition software, according to manufacturer's instructions.

Row | Binder | % residual fluorescence of labeled mAb (human CD3 [1]) [%] | MFI (human CD3 [2]) [MFI] | % residual fluorescence of labeled mAb (human CD3 [3]) [%] | % max ref. OKT3 (dTomato activation) (human CD3 [4]) [%] | EC50 of dTomato induction (CD69 promoter), Jurkat-CD69-dTomato cells, 24 h (human CD3 [4]) [mg/L] | Kd (human CD3 [5]) [nM] | % residual fluorescence of labeled mAb (human CD3 [6]) [%] | % residual fluorescence of labeled mAb (human CD3 [7]) [%] | IC50, indirect ADC surrogate growth inhibition (anti-mouse-DM1) on Jurkat cells (human CD3 [8]) [nM] | Span, indirect ADC surrogate growth inhibition on Jurkat cells (human CD3 [8]) [%] | Kd (human CD3 [9]) [nM]
1 | B1 | 78 | 349 | 64 | 98 | 0.13 | 0.47 | 42 | 7 | 0.075 | 97 | 0.3
2 | B2 | 79 | 334 | 64 | 102 | 0.23 | 0.41 | 39 | 7 | 0.062 | 95 | 0.6
3 | B3 | 89 | 247 | 73 | 86 | 0.25 | 0.46 | 44 | 10 | 0.072 | 96 | 0.8
4 | B4 | 79 | 297 | 76 | 84 | 0.11 | 1 | 45 | 11 | 0.05 | 94 | 0.5
5 | B5 | 90 | 292 | 74 | 98 | 0.19 | 0.37 | 49 | 9 | 0.173 | 95 | 0.4
6 | B6 | 89 | 277 | 76 | 94 | 0.2 | 0.94 | 45 | 12 | 0.072 | 94 | 0.5
7 | B7 | 77 | 319 | 69 | 104 | 0.16 | 0.4 | 42 | 6 | 0.031 | 95 | 0.3
8 | B8 | 78 | 398 | 76 | 87 | 0.18 | 0.53 | 44 | 9 | 0.038 | 92 | 0.5
